Measurements reported in US20090215639A1.

Biological target: human full length IgG1 (Calbiochem) (human)
Assay: BIAcore SPR, IgG1 immobilized, soluble receptor injected

Row | koff [s⁻¹] | fold faster koff against FcγRIIIaV158 [fold] | Substance
1 | 0.0139 | – | FcγRIIIa V158 (receptor)
2 | 0.0858 | 6 | FcγRIIIa F158 (receptor)
